Key:
HeLa Kyoto [1] = test: solubility in G1/S (NP-40 vs SDS abundance) (log2 ratio); higher = more soluble; conditions: cell cycle stage: G1/S
HeLa Kyoto [2] = test: melting temperature (median over replicates), in situ; higher = more thermally stable
HeLa Kyoto [3] = test: thermal stability score vs G1/S (z-score of summed log2 fold changes over temperatures); higher = more thermally stable than in G1/S
HeLa Kyoto [4] = test: solubility change mitosis vs G1/S (difference of NP-40 vs SDS log2 ratios) (log2 ratio difference); higher = more soluble in mitosis
[5] = cell cycle stage: early G1 (4.5 h after nocodazole release)
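For melting temperature (median over replicates), in situ in this document: HeLa Kyoto cells synchronized by double thymidine or nocodazole block, proteins quantified by TMT10plex mass spectrometry, three independent biological replicates.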
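For solubility change mitosis vs G1/S (difference of NP-40 vs SDS log2 ratios) in this document: synchronized HeLa Kyoto cells (double thymidine block for G1/S, nocodazole release for mitosis), protein amounts in NP-40 versus SDS lysates quantified by mass spectrometry, three biological replicates.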
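For solubility in G1/S (NP-40 vs SDS abundance) in this document: HeLa Kyoto cells arrested at G1/S by double thymidine block, proteins quantified by TMT10plex mass spectrometry in mild NP-40 versus SDS extracts, three biological replicates.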
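For thermal stability score vs G1/S (z-score of summed log2 fold changes over temperatures) in this document: synchronized HeLa Kyoto cells, proteins quantified by TMT10plex mass spectrometry, three biological replicates, mitosis taken 0.5 h after nocodazole release, G1/S directly after double thymidine block.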

| Sequence | solubility in G1/S (log2) (HeLa Kyoto [1]) | melting temperature (HeLa Kyoto [2]; cell cycle stage: G1/S) [°C] | melting temperature (HeLa Kyoto [2]; cell cycle stage: mitosis) [°C] | thermal stability score (HeLa Kyoto [3]; [5]) | thermal stability score (HeLa Kyoto [3]; cell cycle stage: mitosis) | solubility change mitosis (log2) (HeLa Kyoto [4]) |
| --- | --- | --- | --- | --- | --- | --- |
| MMTSVGTNRARGNWEQPQNQNQTQHKQRPQATAEQIRLAQMISDHNDADFEEKVKQLIDITGKNQDECVIALHDCNGDVNRAINVLLEGNPDTHSWEMVGKKKGVSGQKDGGQTESNEEGKENRDRDRDYSRRRGGPPRRGRGASRGREFRGQENGLDGTKSGGPSGRGTERGRRGRGRGRGGSGRRGGRFSAQGMGTFNPADYAEPANTDDNYGNSSGNTWNNTGHFEPDDGTSAWRTATEEWGTEDWNEDLSETKIFTASNVSSVPLPAENVTITAGQRIDLAVLLGKTPSTMENDSSNLDPSQAPSLAQPLVFSNSKQTAISQPASGNTFSHHSMVSMLGKGFGDVGEAKGGSTTGSQFLEQFKTAQALAQLAAQHSQSGSTTTSSWDMGSTTQSPSLVQYDLKNPSDSAVHSPFTKRQAFTPSSTMMEVFLQEKSPAVATSTAAPPPPSSPLPSKSTSAPQMSPGSSDNQSSSPQPAQQKLKQQKKKASLTSKIPALAVEMPGSADISGLNLQFGALQFGSEPVLSDYESTPTTSASSSQAPSSLYTSTASESSSTISSNQSQESGYQSGPIQSTTYTSQNNAQGPLYEQRSTQTRRYPSSISSSPQKDLTQAKNGFSSVQATQLQTTQSVEGATGSAVKSDSPSTSSIPPLNETVSAASLLTTTNQHSSSLGGLSHSEEIPNTTTTQHSSTLSTQQNTLSSSTSSGRTSTSTLLHTSVESEANLHSSSSTFSTTSSTVSAPPPVVSVSSSLNSGSSLGLSLGSNSTVTASTRSSVATTSGKAPPNLPPGVPPLLPNPYIMAPGLLHAYPPQVYGYDDLQMLQTRFPLDYYSIPFPTPTTPLTGRDGSLASNPYSGDLTKFGRGDASSPAPATTLAQPQQNQTQTHHTTQQTFLNPALPPGYSYTSLPYYTGVPGLPSTFQYGPAVFPVAPTSSKQHGVNVSVNASATPFQQPSGYGSHGYNTGVSVTSSNTGVPDISGSVYSKTQQSFEKQGFHSGTPAASFNLPSALGSGGPINPATAAAYPPAPFMHILTPHQQPHSQILHHHLQQDGQTGSGQRSQTSSIPQKPQTNKSAYNSYSWGAN [UBAP2L] | -0.0783 | 55.5 | 54.2 | -3.92 | -3.52 | 0.0243 |
| MMTSVSSDHCRGAREKPQISAAQSTQPQKQVVQATAEQMRLAQVIFDKNDSDFEAKVKQLMEVTGKNQDECIVALHDCNGDVNKAINILLEGNSDTTSWETVGCKKKNFAKENSENKENREKKSEKESSRGRGNNNRKGRGGNRGREFRGEENGIDCNQVDKPSDRGKRARGRGFGRGRGRGAGRFSTQGMGTFNPADYSDSTSTDVCGTKLVVWEAAQNGADEGTELASNTHNIAQDLSNKSSYGLKGAWKNSVEEWTTEDWTEDLSETKVFTASSAPAENHILPGQSIDLVALLQKPVPHSQASEANSFETSQQQGFGQALVFTNSQHNNQMAPGTGSSTAVNSCSPQSLSSVLGSGFGELAPPKMANITSSQILDQLKAPSLGQFTTTPSTQQNSTSHPTTTTSWDLKPPTSQSSVLSHLDFKSQPEPSPVLSQLSQRQQHQSQAVTVPPPGLESFPSQAKLRESTPGDSPSTVNKLLQLPSTTIENISVSVHQPQPKHIKLAKRRIPPASKIPASAVEMPGSADVTGLNVQFGALEFGSEPSLSEFGSAPSSENSNQIPISLYSKSLSEPLNTSLSMTSAVQNSTYTTSVITSCSLTSSSLNSASPVAMSSSYDQSSVHNRIPYQSPVSSSESAPGTIMNGHGGGRSQQTLDTPKTTGPPSALPSVSSLPSTTSCTALLPSTSQHTGDLTSSPLSQLSSSLSSHQSSLSAHAALSSSTSHTHASVESASSHQSSATFSTAATSVSSSASSGASLSSSMNTANSLCLGGTPASASSSSSRAAPLVTSGKAPPNLPQGVPPLLHNQYLVGPGGLLPAYPIYGYDELQMLQSRLPVDYYGIPFAAPTALASRDGSLANNPYPGDVTKFGRGDSASPAPATTPAQPQQSQSQTHHTAQQPFVNPALPPGYSYTGLPYYTGMPSAFQYGPTMFVPPASAKQHGVNLSTPTPPFQQASGYGQHGYSTGYDDLTQGTAAGDYSKGGYAGSSQAPNKSAGSGPGKGVSVSSSTTGLPDMTGSVYNKTQTFDKQGFHAGTPPPFSLPSVLGSTGPLASGAAPGYAPPPFLHILPAHQQPHSQLLHHHLPQDAQSGSGQRSQPSSLQPKSQASKPAYGNSPYWTN [UBAP2] | 0.0134 | 57.3 | 56.8 | -3.11 | -3.84 | -0.0536 |
| MNAAASSYPMASLYVGDLHSDVTEAMLYEKFSPAGPVLSIRVCRDMITRRSLGYAYVNFQQPADAERALDTMNFDVIKGKPIRIMWSQRDPSLRKSGVGNVFIKNLDKSIDNKALYDTFSAFGNILSCKVVCDENGSKGYAFVHFETQEAADKAIEKMNGMLLNDRKVFVGRFKSRKEREAELGAKAKEFTNVYIKNFGEEVDDESLKELFSQFGKTLSVKVMRDPNGKSKGFGFVSYEKHEDANKAVEEMNGKEISGKIIFVGRAQKKVERQAELKRKFEQLKQERISRYQGVNLYIKNLDDTIDDEKLRKEFSPFGSITSAKVMLEDGRSKGFGFVCFSSPEEATKAVTEMNGRIVGSKPLYVALAQRKEERKAHLTNQYMQRVAGMRALPANAILNQFQPAAGGYFVPAVPQAQGRPPYYTPNQLAQMRPNPRWQQGGRPQGFQGMPSAIRQSGPRPTLRHLAPTGSECPDRLAMDFGGAGAAQQGLTDSCQSGGVPTAVQNLAPRAAVAAAAPRAVAPYKYASSVRSPHPAIQPLQAPQPAVHVQGQEPLTASMLAAAPPQEQKQMLGERLFPLIQTMHSNLAGKITGMLLEIDNSELLHMLESPESLRSKVDEAVAVLQAHHAKKEAAQKVGAVAAATS [PABPC4] | 0.0374 | 50.3 | 49.6 | -1.92 | -1.27 | 0.0456 |
| MNEAMATDSPRRPSRCTGGVVVRPQAVTEQSYMESVVTFLQDVVPQAYSGTPLTEEKEKIVWVRFENADLNDTSRNLEFHEIHSTGNEPPLLIMIGYSDGMQVWSIPISGEAQELFSVRHGPIRAARILPAPQFGAQKCDNFAEKRPLLGVCKSIGSSGTSPPYCCVDLYSLRTGEMVKSIQFKTPIYDLHCNKRILVVVLQEKIAAFDSCTFTKKFFVTSCYPCPGPNMNPIALGSRWLAYAENKLIRCHQSRGGACGDNIQSYTATVISAAKTLKSGLTMVGKVVTQLTGTLPSGVTEDDVAIHSNSRRSPLVPGIITVIDTETVGEGQVLVSEDSDSDGIVAHFPAHEKPVCCMAFNTSGMLLVTTDTLGHDFHVFQILTHPWSSSQCAVHHLYTLHRGETEAKVQDICFSHDCRWVVVSTLRGTSHVFPINPYGGQPCVRTHMSPRVVNRMSRFQKSAGLEEIEQELTSKQGGRCSPVPGLSSSPSGSPLHGKLNSQDSYNNFTNNNPGNPRLSPLPSLMVVMPLAQIKQPMTLGTITKRTGPYLFGAGCFSIKAPCKVKPPPQISPSKSMGGEFCVAAIFGTSRSWFANNAGLKREKDQSKQVVVESLYIISCYGTLVEHMMEPRPLSTAPKISDDTPLEMMTSPRASWTLVRTPQWNELQPPFNANHPLLLAADAVQYYQFLLAGLVPPGSPGPITRHGSYDSLASDHSGQEDEEWLSQVEIVTHTGPHRRLWMGPQFQFKTIHPSGQTTVISSSSSVLQSHGPSDTPQPLLDFDTDDLDLNSLRIQPVRSDPVSMPGSSRPVSDRRGVSTVIDAASGTFDRSVTLLEVCGSWPEGFGLRHMSSMEHTEEGLRERLADAMAESPSRDVVGSGTELQREGSIETLSNSSGSTSGSIPRNFDGYRSPLPTNESQPLSLFPTGFP [BCAS3] | -0.0403 | 52.9 | 52.2 | -0.731 | -1.02 | -0.229 |
| MNEEYDVIVLGTGLTECILSGIMSVNGKKVLHMDRNPYYGGESASITPLEDLYKRFKIPGSPPESMGRGRDWNVDLIPKFLMANGQLVKMLLYTEVTRYLDFKVTEGSFVYKGGKIYKVPSTEAEALASSLMGLFEKRRFRKFLVYVANFDEKDPRTFEGIDPKKTTMRDVYKKFDLGQDVIDFTGHALALYRTDDYLDQPCYETINRIKLYSESLARYGKSPYLYPLYGLGELPQGFARLSAIYGGTYMLNKPIEEIIVQNGKVIGVKSEGEIARCKQLICDPSYVKDRVEKVGQVIRVICILSHPIKNTNDANSCQIIIPQNQVNRKSDIYVCMISFAHNVAAQGKYIAIVSTTVETKEPEKEIRPALELLEPIEQKFVSISDLLVPKDLGTESQIFISRTYDATTHFETTCDDIKNIYKRMTGSEFDFEEMKRKKNDIYGED [GDI2] | 0.218 | 55.2 | 54.7 | -1.03 | -0.13 | -0.174 |
| MNFLRGVMGGQSAGPQHTEAETIQKLCDRVASSTLLDDRRNAVRALKSLSKKYRLEVGIQAMEHLIHVLQTDRSDSEIIGYALDTLYNIISNEEEEEVEENSTRQSEDLGSQFTEIFIKQQENVTLLLSLLEEFDFHVRWPGVKLLTSLLKQLGPQVQQIILVSPMGVSRLMDLLADSREVIRNDGVLLLQALTRSNGAIQKIVAFENAFERLLDIISEEGNSDGGIVVEDCLILLQNLLKNNNSNQNFFKEGSYIQRMKPWFEVGDENSGWSAQKVTNLHLMLQLVRVLVSPTNPPGATSSCQKAMFQCGLLQQLCTILMATGVPADILTETINTVSEVIRGCQVNQDYFASVNAPSNPPRPAIVVLLMSMVNERQPFVLRCAVLYCFQCFLYKNQKGQGEIVSTLLPSTIDATGNSVSAGQLLCGGLFSTDSLSNWCAAVALAHALQENATQKEQLLRVQLATSIGNPPVSLLQQCTNILSQGSKIQTRVGLLMLLCTWLSNCPIAVTHFLHNSANVPFLTGQIAENLGEEEQLVQGLCALLLGISIYFNDNSLESYMKEKLKQLIEKRIGKENFIEKLGFISKHELYSRASQKPQPNFPSPEYMIFDHEFTKLVKELEGVITKAIYKSSEEDKKEEEVKKTLEQHDNIVTHYKNMIREQDLQLEELRQQVSTLKCQNEQLQTAVTQQVSQIQQHKDQYNLLKIQLGKDNQHQGSYSEGAQMNGIQPEEIGRLREEIEELKRNQELLQSQLTEKDSMIENMKSSQTSGTNEQSSAIVSARDSEQVAELKQELATLKSQLNSQSVEITKLQTEKQELLQKTEAFAKSVEVQGETETIIATKTTDVEGRLSALLQETKELKNEIKALSEERTAIKEQLDSSNSTIAILQTEKDKLELEITDSKKEQDDLLVLLADQDQKILSLKNKLKDLGHPVEEEDELESGDQEDEDDESEDPGKDLDHI [USO1] | 0.289 | 51.2 | 50.6 | 2.79 | 1.73 | -0.0652 |
| MNFRQLLLHLPRYLGASGSPRRLWWSPSLDTISSVGSWRGRSSKSPAHWNQVVSEAEKIVGYPTSFMSLRCLLSDELSNIAMQVRKLVGTQHPLLTTARGLVHDSWNSLQLRGLVVLLISKAAGPSSVNTSCQNYDMVSGIYSCQRSLAEITELIHIALLVHRGIVNLNELQSSDGPLKDMQFGNKIAILSGDFLLANACNGLALLQNTKVVELLASALMDLVQGVYHENSTSKESYITDDIGISTWKEQTFLSHGALLAKSCQAAMELAKHDAEVQNMAFQYGKHMAMSHKINSDVQPFIKEKTSDSMTFNLNSAPVVLHQEFLGRDLWIKQIGEAQEKGRLDYAKLRERIKAGKGVTSAIDLCRYHGNKALEALESFPPSEARSALENIVFAVTRFS [PDSS2] | 0.217 | 53.5 | 54.1 | 0.42 | -0.202 | 0.169 |
